Laboratory results: patent US20160031998A1 (CSL, published 2016)
Changes are numbered by the printed parent chain. Each block holds one binder with its values, some of them ahead of it.

Assays:
[1] = target: T1, human G-CSFR expressed on cells (Homo sapiens, UniProt Q99062 25-836); test: cell-based or functional assay
T1 sequence: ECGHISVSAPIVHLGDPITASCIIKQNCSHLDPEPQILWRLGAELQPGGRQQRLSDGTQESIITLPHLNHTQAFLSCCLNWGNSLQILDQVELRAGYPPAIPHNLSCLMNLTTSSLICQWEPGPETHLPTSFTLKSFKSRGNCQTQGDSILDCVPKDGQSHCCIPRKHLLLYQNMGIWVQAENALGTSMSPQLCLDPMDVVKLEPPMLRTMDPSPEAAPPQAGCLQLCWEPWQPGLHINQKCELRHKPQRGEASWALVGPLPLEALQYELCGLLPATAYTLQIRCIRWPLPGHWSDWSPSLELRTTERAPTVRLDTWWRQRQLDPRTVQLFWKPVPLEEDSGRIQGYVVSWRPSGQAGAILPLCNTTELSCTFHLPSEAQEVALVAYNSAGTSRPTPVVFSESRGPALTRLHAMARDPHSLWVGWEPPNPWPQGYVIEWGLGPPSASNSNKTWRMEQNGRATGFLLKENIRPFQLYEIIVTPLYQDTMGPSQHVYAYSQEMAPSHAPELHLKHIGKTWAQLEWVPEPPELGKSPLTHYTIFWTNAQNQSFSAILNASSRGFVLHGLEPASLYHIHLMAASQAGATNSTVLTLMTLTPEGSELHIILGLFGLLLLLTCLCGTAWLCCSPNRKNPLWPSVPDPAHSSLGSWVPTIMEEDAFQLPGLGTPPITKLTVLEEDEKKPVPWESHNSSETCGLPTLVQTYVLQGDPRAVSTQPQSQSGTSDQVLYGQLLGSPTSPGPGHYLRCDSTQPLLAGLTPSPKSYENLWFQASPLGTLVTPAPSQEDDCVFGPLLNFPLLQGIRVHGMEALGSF

[2] = target: T2, soluble hG-CSFR: amino acids 25-335 of Homo sapiens G-CSFR with mutations C78A, C163S and C228S and a … (Homo sapiens, UniProt Q99062 25-335); test: SPR (Biacore), mAb captured by anti-human IgG, soluble hG-CSFR injected
T2 chain: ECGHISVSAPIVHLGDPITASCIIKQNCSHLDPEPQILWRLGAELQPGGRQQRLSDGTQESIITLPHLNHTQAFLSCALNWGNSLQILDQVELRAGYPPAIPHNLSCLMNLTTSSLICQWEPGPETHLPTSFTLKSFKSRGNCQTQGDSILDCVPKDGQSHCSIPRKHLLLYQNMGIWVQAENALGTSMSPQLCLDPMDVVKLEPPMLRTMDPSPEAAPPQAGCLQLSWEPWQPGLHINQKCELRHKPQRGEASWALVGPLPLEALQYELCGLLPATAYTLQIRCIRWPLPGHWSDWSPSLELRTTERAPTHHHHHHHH
Experimental: Soluble hG-CSFR was injected for 5 minutes and dissociation was monitored for 30 minutes. Responses from a reference flow cell (in which mAb was not captured, but otherwise treated identically), were subtracted. The responses from a blank injection were then subtracted from the resultant sensorgrams.
The final corrected responses were fitted using non-linear regression to a model describing 1:1 kinetics, including a term for mass transport limitation. The Rmax value was fitted locally, to account for slight deviations in the level of mAb captured. Association rate (ka), dissociation rate (kd) and equilibrium dissociation constant (KD) were determined.

B2: C1.2G-54 (antibody, human IgG4, V domains shown)
VH: EVQLLESGGGLVQPGGSLRLSCAASGFTFSLYWMGWVRQAPGKGLEWVSSISSSGGVTPYADSVKGRFTISRDNSKNTLYLQMNSLRAEDTAVYYCAKLGELGMFLEWGQGTLVTVSS
VL: DIQMTQSPSSLSASVGDRVTITCRASQGISSYLNWYQQKPGKAPKLLIYYASNLQNGVPSRFSGSGSGTDFTLTISSLQPEDFATYYCQQSMWMPMGFGGGTKVEIK
notes: also called antibody 54
- IC50 (nM), inhibition of G-CSF-mediated proliferation of BaF3 cells [1]: 0.5 nM
- Kd [2]: 0.11 nM

B3: C1.2G-973 (antibody, human IgG4, V domains shown)
VH: B2 VH with M104Q, F105M, L106V, E107Y
VL: B2 VL with M92F, W93K, M94Y, G97T
notes: also called antibody 973
- Kd [2]: 0.23 nM

B4: C1.2G-975 (antibody, human IgG4, V domains shown)
VH: B2 VH with M104Q, F105S, L106M, E107L
VL: B2 VL with M92W, W93Q, M94I, P95K, M96L, G97K
notes: also called antibody 975
- Kd [2]: 0.209 nM

B5: C1.2G-999 (antibody, human IgG4, V domains shown)
VH: B2 VH with L106H, E107K
VL: B2 VL with M92W, W93E, M94Y, P95A, G97F
notes: also called antibody 999
- Kd [2]: 0.356 nM

B8: C1.2G-994 (antibody, human IgG4, V domains shown)
VH: B2 VH with M104Q, L106M, E107D
VL: B2 VL with M92L, W93E, M94Y, M96Q, G97M
notes: also called antibody 994
- IC50 (nM), inhibition of G-CSF-mediated proliferation of BaF3 cells [1]: 0.49 nM
- Kd [2]: 0.17 nM

B9: C1.2G-989 (antibody, human IgG4, V domains shown)
VH: B2 VH with M104Q, F105Y, L106M, E107F
VL: B2 VL with M92F, W93Y, M94Y, M96F, G97Y
notes: also called antibody 989
- IC50 (nM), inhibition of G-CSF-mediated proliferation of BaF3 cells [1]: 0.34 nM
- Kd [2]: 0.144 nM

B10: C1.2G-1002 (antibody, human IgG4, V domains shown)
VH: B2 VH with F105Y, L106M, E107N
VL: B2 VL with M92W, W93T, M94Y, P95G, M96Q, G97T
notes: also called antibody 1002
- IC50 (nM), inhibition of G-CSF-mediated proliferation of BaF3 cells [1]: 0.18 nM
- Kd [2]: 0.167 nM

B11: C1.2G-43 (antibody, human IgG4, V domains shown)
VH: B2 VH with M104Q, L106M, E107R
VL: B2 VL with M92I, W93G, M94Y, M96G, G97S
notes: also called antibody 43
- Kd [2]: 0.336 nM

B12: C1.2G-984 (antibody, human IgG4, V domains shown)
VH: B2 VH with F105M, L106Q, E107S
VL: B2 VL with M92I, W93E, M94Y, M96A, G97H
notes: also called antibody 984
- Kd [2]: 0.25 nM

B13: C1.2G-977 (antibody, human IgG4, V domains shown)
VH: B2 VH with M104E, F105I, L106R
VL: B2 VL with M92W, W93V, M94Y, P95H, M96L, G97P
notes: also called antibody 977
- Kd [2]: 0.246 nM

B15: C1.2G-967 (antibody, human IgG4, V domains shown)
VH: B2 VH with F105Y, L106D, E107L
VL: B2 VL with M92W, W93A, M94Y, P95G, M96L, G97S
notes: also called antibody 967
- IC50 (nM), inhibition of G-CSF-mediated proliferation of BaF3 cells [1]: 0.29 nM
- Kd [2]: 0.134 nM

B16: C1.2G-996 (antibody, human IgG4, V domains shown)
VH: B2 VH with M104Q, F105Y, L106M, E107G
VL: B2 VL with M96I, G97F
notes: also called antibody 996
- Kd [2]: 0.336 nM

B18: C1.2G-814 (antibody, human IgG4, V domains shown)
VH: B2 VH with M104W, L106D, E107P
VL: B2 VL with Q89S, W93E, M94Y, M96L, G97T
notes: HCDR3 wt (VH of C1.2G); also called antibody 814
- Kd [2]: 0.221 nM

B19: C1.2G-77 (antibody, human IgG4, V domains shown)
VH: B2 VH with M104W, L106D, E107P
VL: B2 VL with Q89E, S91G, M92W, W93N, M94Y, M96L, G97T
notes: HCDR3 wt (VH of C1.2G); also called antibody 77
- IC50 (nM), inhibition of G-CSF-mediated proliferation of BaF3 cells [1]: 0.23 nM
- Kd [2]: 0.107 nM

B21: C1.2G-75 (antibody, human IgG4, V domains shown)
VH: B2 VH with M104W, L106D, E107P
VL: B2 VL with Q89E, Q90E, W93N, M94Y, M96L, G97T
notes: HCDR3 wt (VH of C1.2G); also called antibody 75
- Kd [2]: 0.211 nM

B22: C1.2G-852 (antibody, human IgG4, V domains shown)
VH: B2 VH with M104H, F105S, E107A
VL: B2 VL with M92Y, W93S, M94T, M96L, G97T
notes: LCDR3 wt (VL of C1.2G); also called antibody 852
- Kd [2]: 0.292 nM

B23: C1.2G-94 (antibody, human IgG4, V domains shown)
VH: B2 VH with M104W, L106D, E107P
VL: B2 VL with M92W, W93V, M94Y, M96A, G97W
notes: HCDR3 wt (VH of C1.2G); also called antibody 94
- Kd [2]: 0.189 nM

B24: C1.2G-870 (antibody, human IgG4, V domains shown)
VH: B2 VH with M104W, L106D, E107P
VL: B2 VL with M92W, W93M, M94Y, P95H, M96K, G97I
notes: HCDR3 wt (VH of C1.2G); also called antibody 870
- Kd [2]: 0.367 nM

B26: C1.2G-877 (antibody, human IgG4, V domains shown)
VH: B2 VH with M104W, L106D, E107P
VL: B2 VL with M92F, W93R, M94Y, M96F, G97Y
notes: HCDR3 wt (VH of C1.2G); also called antibody 877
- Kd [2]: 0.508 nM

B27: C1.2G-63 (antibody, human IgG4, V domains shown)
VH: B2 VH with M104W, L106D, E107P
VL: B2 VL with Q89A, Q90N, M92W, W93G, M94Y, M96L, G97T
notes: HCDR3 wt (VH of C1.2G); also called antibody 63
- IC50 (nM), inhibition of G-CSF-mediated proliferation of BaF3 cells [1]: 0.26 nM
- Kd [2]: 0.161 nM

B28: C1.2G-802 (antibody, human IgG4, V domains shown)
VH: B2 VH with M104W, L106D, E107P
VL: B2 VL with Q89H, Q90F, W93Q, M94Y, M96L, G97T
notes: HCDR3 wt (VH of C1.2G); also called antibody 802
- IC50 (nM), inhibition of G-CSF-mediated proliferation of BaF3 cells [1]: 0.26 nM
- Kd [2]: 0.111 nM

Now those with a lower Kd [2], led by results:

- IC50 (nM), inhibition of G-CSF-mediated proliferation of BaF3 cells [1]: 0.22 nM
- Kd [2]: 0.0993 nM
B20: C1.2G-56 (antibody, human IgG4, V domains shown)
VH: B2 VH with M104W, L106D, E107P
VL: B2 VL with M92Y, W93M, M94Y, M96I, G97K
notes: HCDR3 wt (VH of C1.2G); also called antibody 56

- IC50 (nM), inhibition of G-CSF-mediated proliferation of BaF3 cells [1]: 0.28 nM
- Kd [2]: 0.0911 nM
B14: C1.2G-986 (antibody, human IgG4, V domains shown)
VH: B2 VH with M104F, L106Q
VL: B2 VL with M92Y, W93A, M94Y, M96Q, G97Q
notes: also called antibody 986

- IC50 (nM), inhibition of G-CSF-mediated proliferation of BaF3 cells [1]: 0.21 nM
- Kd [2]: 0.0906 nM
B30: C1.2G-97 (antibody, human IgG4, V domains shown)
VH: B2 VH with M104W, L106D, E107P
VL: B2 VL with M92F, W93M, M94Y, M96L, G97Y
notes: HCDR3 wt (VH of C1.2G); also called antibody 97

- IC50 (nM), inhibition of G-CSF-mediated proliferation of BaF3 cells [1]: 0.39 nM
- Kd [2]: 0.0733 nM
B1: C1.2G-44 (antibody, human IgG4, V domains shown)
VH: B2 VH with M104W, L106D, E107P
VL: B2 VL with M92Y, W93S, M94Y, M96Q, G97K
notes: HCDR3 wt (VH of C1.2G); also called antibody 44

- IC50 (nM), inhibition of G-CSF-mediated proliferation of BaF3 cells [1]: 0.26 nM
- Kd [2]: 0.0682 nM
B6: C1.2G-1003 (antibody, human IgG4, V domains shown)
VH: B2 VH with M104S, F105G, L106S, E107T
VL: B2 VL with M92W, W93H, M94Y, M96L, G97T
notes: also called antibody 1003

- IC50 (nM), inhibition of G-CSF-mediated proliferation of BaF3 cells [1]: 0.21 nM
- Kd [2]: 0.066 nM
B29: C1.2G-83 (antibody, human IgG4, V domains shown)
VH: B2 VH with M104W, L106D, E107P
VL: B2 VL with M92W, W93M, M94Y, P95A, M96L, G97F
notes: HCDR3 wt (VH of C1.2G); also called antibody 83

- IC50 (nM), inhibition of G-CSF-mediated proliferation of BaF3 cells [1]: 0.31 nM
- Kd [2]: 0.0613 nM
B17: C1.2G-79 (antibody, human IgG4, V domains shown)
VH: B2 VH with M104W, L106D, E107P
VL: B2 VL with Q90V, M92W, W93E, M94Y, M96L, G97T
notes: HCDR3 wt (VH of C1.2G); also called antibody 79

- IC50 (nM), inhibition of G-CSF-mediated proliferation of BaF3 cells [1]: 0.26 nM
- Kd [2]: 0.0578 nM
B25: C1.2G-95 (antibody, human IgG4, V domains shown)
VH: B2 VH with M104W, L106D, E107P
VL: B2 VL with M92W, W93E, M94Y, M96L, G97V
notes: HCDR3 wt (VH of C1.2G); also called antibody 95

- IC50 (nM), inhibition of G-CSF-mediated proliferation of BaF3 cells [1]: 0.88 nM
- Kd [2]: 0.0446 nM
B7: C1.2G-987 (antibody, human IgG4, V domains shown)
VH: B2 VH with M104Q, F105S, L106S, E107A
VL: B2 VL with M92I, W93Q, M94Y, M96Q, G97M
notes: also called antibody 987
